From article PMC10980420, “Abscisic acid–induced transcription factor PsMYB306 negatively regulates tree peony bud dormancy release” come the findings set out here.

Series [1] concerns the target T1, PsMYB306 (Paeonia suffruticosa, UniProt A0A7M3T7P1 1-327). As to the kind of experiment: EMSA; LightShift EMSA Optimization and Control Kit (Pierce); buffer, salt, pH and temperature not stated. As to conditions: protein: recombinant; tags: His (pET28a, BamHI/HindIII); label: biotin (5' of strand 1 as printed, Bio-); blunt. Background: A gel shift assay detects complexes by their altered migration in electrophoresis.

For series [2], the target named is T1, PsMYB306. Put plainly: competition; unlabeled competitor at 50- and 100-fold against N1; signal attenuated; LightShift EMSA Optimization and Control Kit (Pierce); buffer, salt, pH and temperature not stated. As to conditions: protein: recombinant; tags: His (pET28a, BamHI/HindIII); label: none; blunt.

T1 sequence (A0A7M3T7P1 entry or part of it): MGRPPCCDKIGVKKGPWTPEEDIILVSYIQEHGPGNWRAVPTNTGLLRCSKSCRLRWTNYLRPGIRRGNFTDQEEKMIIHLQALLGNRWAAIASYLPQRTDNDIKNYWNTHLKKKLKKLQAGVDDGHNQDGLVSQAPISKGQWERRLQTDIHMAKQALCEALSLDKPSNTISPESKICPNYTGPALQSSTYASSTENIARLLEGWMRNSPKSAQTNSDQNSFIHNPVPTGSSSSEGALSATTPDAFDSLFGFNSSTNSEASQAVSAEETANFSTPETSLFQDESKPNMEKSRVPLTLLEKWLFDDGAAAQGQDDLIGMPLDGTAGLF

B1: pPsNCED3 mutant probe (dsDNA)
DNA 1: ACTTAGGATTACTCAGCCATAACTTCCTTCTT
DNA 2: AAGAAGGAAGTTATGGCTGAGTAATCCTAAGT
With B1, in the series with PsMYB306 [1], the binding result is “no binding”.

B2: pPsNCED3 WT probe (dsDNA)
DNA 1: ACTTAGGATTACTAGTTAATAACTTCCTTCTT
DNA 2: AAGAAGGAAGTTATTAACTAGTAATCCTAAGT
Consider B2, for which the binding result with PsMYB306 [1] is “binds”.

B3: pPsNCED3 WT cold competitor (dsDNA)
DNA 1: B2 DNA 1
DNA 2: B2 DNA 2
As to B3, the binding result with PsMYB306 [2] was “binds”.
